# Experimental data: the RNAGym collection of RNA variant scans (doi:10.1073/pnas.2313332121)
# B1: TPR t1 (parent)
# chain: GACCAAUCUGCCCUCAGAGCUCGAGAACAUCUUCGGAUGCAGAGGAGGCAGGCUUCGGUGGCGCGAUAGCGCCAACGUCCUCAACCUCCAAUGCAUCCCACCACAUGAUGAUGCCUGAAGAGCCUUGGUUUUUUG
# Variants of: B1
# Assay: polymerase ribozyme fitness, log enrichment relative to wild type (log ratio); higher = more active; in vitro selection for triplet polymerase activity
# Procedure, shortened: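 Mutant libraries of both subunits of a heterodimeric triplet polymerase ribozyme were PCR-built, transcribed, and selected once in triplicate, with frozen incubation at −7 °C and capture of gel-excised extended constructs on streptavidin beads before RT-PCR. Illumina sequencing of input and output libraries was filtered to genotypes with ≥10 input reads and ≥1 read per output. Fitness is the logarithm of genotype enrichment over wild-type enrichment, using inverse-variance-weighted replicate averages. The logarithm is base 2.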
row,Variant,polymerase ribozyme fitness (log ratio)
1,C28U C40A C124U U130A,-3.36
2,U32A G42A U54C U116C G128A,-6.04
3,A29C U106A,-1.93
4,C34A G44A G48A G61U A121C C123G,-4.48
5,C28U G44C C79U C82U U126C G127U U129G,-3.26
6,C28U U112C U131A,-0.425
7,U32G C62U A105U U112G,-6.91
8,C31U G57C U106A,-0.497
9,U33G C49G G57A C62U A84C C88G G93A G110C,-7.42
10,C34A G60U,-3.73
11,C34A G60A,-3.35
12,C31U C56A C73G U106A C124A,0.239
13,U32C C79U U106C,-0.788
14,A29U C40U C49A A68G U106A,-4.25
15,A29U C40U G60C U131A,-2.41
16,A29U G61A,-1.45
17,A29G G60A,-1.42
18,A29G G60C,-1.31
19,U32C C49A,-0.089
20,C28U G52U,-2.88
21,C28U G52A C70U,-3.7
22,U33G C70G G113U,-6.56
23,C28U G77A U112G U125A,-3.35
24,A29G G71A G120U U132A,-2.06

row,Variant,polymerase ribozyme fitness (log ratio)
1,C28U C53A G93U,-4.15
2,A29U G42C A66G A119U,-4.64
3,C28U G44U U59A C89G,-4.37
4,A29U A43U U78C U112A,-2.84
5,U32G C53A C64U U109G,-7.34
6,A29G C115A,-0.195
7,C28U A50U C70A U106A G110A C114A,-5.71
8,U32C U81G,-3.83
9,C34A G42U C70G U81A C101A,-8.04
10,A29G C49G G71A U125G,-3.8
11,C28U A100C C102U U112C,-4.83
12,C28U G42U G44U G61U,-4.27
13,U30C G63A,-2.6
14,A29G U132C,-0.924
15,C31G C53A G60A C94U U106A,-5.77
16,C28U C73U U81A U106C,-3.5
17,U33G G128A,-6.19
18,U32C C73A C85G,-3.02
19,U33G U96A G110C U116G,-6.31
20,U33G C82U A83C,-6.87
21,A29U U78C,-1.79
22,C34A C40U G48C C114U G120C,-3.6
23,C31G C80A A105G G113A,-4.57
24,A29U G69U U81C A100U C124A,0.115

row,Variant,polymerase ribozyme fitness (log ratio)
1,A29U G44A U59A A103C U112C,-5.66
2,U33G U133G,-6.24
3,U33G C104U C123G,-4.29
4,A29G G69U A95G,-1
5,U33G C56A C88U,-4.09
6,U32G A41G C70U C114U,-4.09
7,C34A C123A U132C,-2.13
8,C34A G52A U96C C124A,-1.41
9,U30G U32C,-6.32
10,A29G A43G G107U C124U,-6.92
11,U32C C124G,1.48
12,C34A G36C A46G G93U A119G,-3.14
13,U33A G61A U87A U133G,-4.05
14,C34A C64G,-6.42
15,C28U C123U,-0.507
16,U32C G44U G60A,-0.98
17,A29U G127A,-4.12
18,U33G G47C G61C C80A U112A U116C A119U,-6.76
19,U33A U59A U112C G122C,-4.47
20,U33A A46C G69U,-0.918
21,U30A C56A C70U,-7.2
22,U32G U33C A43U A91U C124U,-5.75
23,A29G G42C G45C C49A U106A,-4.8
24,C28U U96G,-2.43

row,Variant,polymerase ribozyme fitness (log ratio)
1,C28U U38A C79U C104A C124A U133G,-4.38
2,C31U C124U,-3.64
3,U33G G63C C124A,-4.77
4,A29G C88U,-1.2
5,U33G G60U C85G,-7.61
6,A29U U96C,-1.87
7,A29G G63U G120C,-1.96
8,A29G G71U G110A,-2.82
9,C31G G61C,-7.02
10,C28U A41G A121C,-0.919
11,A29U A37U C40U G71C,-2.78
12,C28U A46U G48A A95G C124G,-3.31
13,A29U A43G G61U G113A C123A U126A U134C,-3.47
14,C31U G36C G61A,-4.05
15,U32C G71C C79G U81C G113A,-3.36
16,U33G A111U A121G U125A,-6.73
17,C31G G48U G65A C86G A100C G120C,-6.59
18,U32C G60U A66G C89G,-6.79
19,C28U G45A C70U G113A A118U U131C,-4.94
20,C28U G127U,-2.17
21,U32G A103G C104A C123A,-6.74
22,A29C C56A G71C U87A C98A C101U G110C,-6.81
23,C34A A83G A100U,-5.18
24,U30C C40U U55G,-4.05

row,Variant,polymerase ribozyme fitness (log ratio)
1,C28U A43G G69U G113A,-1.82
2,U32C C49U A95C U133A,-1.67
3,C28U U129A,-3.1
4,A29G A37G U54G G69C,-7.29
5,C31G G51U C97A C124U,-6.07
6,A29U A66C,-2.83
7,C31G G120A,-5.69
8,C31G G120C,-5.91
9,C34A C72U A100U,-4.44
10,C34A C53U C114A U129C,-5.56
11,U32C G48C,-1.44
12,C28U A74U,-2.33
13,C34A C80U,-4.3
14,U30C C101U A111C,-3.68
15,U33C G45A,-5.98
16,A29G A46U G52U G57U C80U U87G C115G,-5.18
17,C28U G61A U112C U131A,0.223
18,C28U G36C C56U U81C G122U C124U U132C,-2.46
19,C28U A50U,-2.92
20,A29G C34A C40A U106G G113U U126C,-7.15
21,A29G G69C G77C,-4.34
22,A29U A83G C86U,-2.72
23,U33C G39U A111C A121C,-5.95
24,C31A G77C U112C,-4.36

row,Variant,polymerase ribozyme fitness (log ratio)
1,A29G G120U,-0.745
2,U33C C49A,-5.36
3,A29U C56G C85A,-4.99
4,A29U C72U,-2.19
5,U32G U33C A43U A91U,-6.04
6,C31A C98U,-7.02
7,A29U G35A C56U C72U U96A C98G C115G,-7.16
8,U33G U55A C72G,-6.25
9,U32A G44U U55A,-5.23
10,C31U C40U,-4.75
11,A29G G42A G63A,-4.31
12,A29G C70U G93U,-3
13,U32G C56A C97A U109A,-6.23
14,C31G A50G G60A C79A C124A,-7.23
15,A29C C70U A118G,-2.26
16,U32G A37G G113C,-5.08
17,C28U C49U,-3.27
18,U32C G52A G61A U125A,-0.743
19,U32C C56A C80U,-1.66
20,C34A A41G,-3.94
21,C31U G69U U78C A118G,-3.16
22,C28U C124A U125A,-0.0946
23,A29U U30G G57U G63C C72U G120A,-7.09
24,C28U G113C,-3.57

row,Variant,polymerase ribozyme fitness (log ratio)
1,C28U G113A,-2
2,U32C C79G U81C G113A,-2.36
3,A29U A43G U54C G63A G117C,-7.13
4,A29G C73U,-1.55
5,A29U C62U,-1.3
6,U32C C62A C82G G120C,-2.66
7,U32A C56G G77U C99A C123U U125G,-5.41
8,C34A G35U G48C,-3.95
9,U30C C72A,-2.24
10,C31A C56U,-4.45
11,C34A G39U C56G,-3.08
12,U32A A41U,-5.52
13,C34A A46U A68U G71C C124G,-7.38
14,C31U G47U U112C G120C,-4.82
15,C31U A118U C123U,-4.23
16,U33A G63A,-6.46
17,C34A C40U C85G,-4.94
18,C28U U125A,-2.25
19,C31U U54A,-5.03
20,A29C C62U C94A,-3.98
21,C34A A50C C53G U106A A111C,-5.87
22,U32A G47U C72U A83U,-5.74
23,A29C C56G C73A A119G,-3.16
